Test results taken from the RNAGym collection of RNA variant scans (doi:10.1093/molbev/msab373).

B1: Azoarcus group I ribozyme (parent)
chain: GUGCCUUGCGCCGGGAAACCACGCAAGGGAUGGUGUCAAAUUCGGCGAAACCUAAGCGCCCGCCCGGGCGUAUGGCAACGCCGAGCCAAGCUUCGGCGCCUGCGCCGAUGAAGGUGUAGAGACUAGACGGCACCCACCUAAGGCAAACGCUAUGGUGAAGGCAUAGUCCAGGGAGUGGCGAAAGUCACACAAACCGG

Variants of: B1
Assay: reverse-splicing fitness (ratio to wild type); higher = more active; in vitro selection; Mg2+ level not given
In short: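 An in vitro group I ribozyme library with randomized positions was T7-transcribed and gel-purified. In triplicate, 10 pmol RNA in EPPS pH 7.5 was reacted with 50 pmoles of a 30-nt RNA substrate for 1 h at 37 °C across several added MgCl2 levels (1–48 mM), then stopped with EDTA. Products were reverse transcribed from a substrate-complementary primer, PCR-amplified and sequenced (HiSeq 4000). Fitness is a variant's read proportion after selection over that before, normalised to wild type.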

Row | Variant | reverse-splicing fitness
1 | C82A A111U A145U C150U C169U U176G | 0.00717
2 | C82A A111U A145U C150U C169U U176C | 0.0143
3 | C82A A111U A145U C150U C169U U176A | 0.0147
4 | C82A A120C A145C C150U C169A U176G | 0.00541
5 | C82A A120C A145C C150U C169A U176A | 0.0161
6 | C82A A120C A145C C150U C169A U176C | 0.00786
7 | C82A A111U A145G C150U | 0.222
8 | C82A A120C A145C C150U C169G | 0.00856
9 | C82A A120C A145C C150U C169A | 0.00982
10 | C82A A120C A145C C150U C169U | 0.0118
11 | C82A A120C A145C C150G C169A U176A | 0.0105
12 | C82A A120C A145C C150G C169A U176C | 0.00816
13 | C82A A120C A145C C150G C169A U176G | 0.00632
14 | C82A A111U A145U C150A C169A U176C | 0.0138
15 | C82A A111U A145U C150A C169A U176G | 0.00765
16 | C82A A111U A145U C150A C169A U176A | 0.0158
17 | C82A A120C A145U | 0.135
18 | C82A A120C A145C | 0.124
19 | C82A A120C A145G | 0.136
20 | C82A A111U A145G C169A U176A | 0.0221
21 | C82A A111U A145G C169A U176G | 0.00574

Row | Variant | reverse-splicing fitness
22 | C82A A111U A145G C169A U176C | 0.0292
23 | C82A A111U A145U C169U U176G | 0.00541
24 | C82A A111U A145U C169U U176C | 0.0139
25 | C82A A111U A145U C169U U176A | 0.0142
26 | C82A A111U A145U U176A | 0.0937
27 | C82A A111U A145U U176G | 0.0281
28 | C82A A111U A145U U176C | 0.134
29 | C82A A120C A145C C150A C169A U176G | 0.00574
30 | C82A A120C A145C C150A C169A U176A | 0.0195
31 | C82A A120C A145C C150A C169A U176C | 0.0102
32 | C82A A120C A145C C150G C169G U176G | 0.00575
33 | C82A A120C A145C C150G C169G U176C | 0.00971
34 | C82A A120C A145C C150G C169G U176A | 0.00969
35 | C82A A111U C169A U176G | 0.00595
36 | C82A A111U C169A U176A | 0.0172
37 | C82A A111U C169A U176C | 0.0202
38 | C82A A120C A145C C169U U176C | 0.0127
39 | C82A A120C A145C C169U U176G | 0.00354
40 | C82A A120C A145C C169U U176A | 0.0135
41 | C82A A120C A145G C150A C169A U176C | 0.0248
42 | C82A A120C A145G C150A C169A U176G | 0.00876

Row | Variant | reverse-splicing fitness
43 | C82A A120C A145G C150A C169A U176A | 0.0224
44 | C82A A120C A145C C150A C169U U176G | 0.00481
45 | C82A A120C A145C C150A C169U U176A | 0.0144
46 | C82A A120C A145C C150A C169U U176C | 0.0111
47 | C82A A111U C150G C169A U176A | 0.0116
48 | C82A A111U C150G C169A U176G | 0.00757
49 | C82A A111U C150G C169A U176C | 0.0105
50 | C82A A120C A145C C150G C169A | 0.00891
51 | C82A A120C A145C C150G C169U | 0.00982
52 | C82A A120C A145C C150G C169G | 0.00784
53 | C82A A120C A145U C150U C169G U176G | 0.00507
54 | C82A A120C A145U C150U C169G U176C | 0.0198
55 | C82A A120C A145U C150U C169G U176A | 0.0129
56 | C82A A111U A145U C169G U176C | 0.0142
57 | C82A A111U A145U C169G U176A | 0.0127
58 | C82A A111U A145U C169G U176G | 0.00625
59 | C82A A120C A145U C150G C169G U176G | 0.00467
60 | C82A A120C A145U C150G C169G U176C | 0.00545
61 | C82A A120C A145U C150G C169G U176A | 0.00819
62 | C82A A111U A145U C150U C169U | 0.0124
63 | C82A A111U A145U C150U C169A | 0.00985

Row | Variant | reverse-splicing fitness
64 | C82A A111U A145U C150U C169G | 0.00969
65 | C82A A120C A145G C150U C169U | 0.019
66 | C82A A120C A145G C150U C169G | 0.00896
67 | C82A A120C A145G C150U C169A | 0.0108
68 | C82A A120C A145C C150U U176C | 0.0227
69 | C82A A120C A145C C150U U176G | 0.00635
70 | C82A A120C A145C C150U U176A | 0.0172
71 | C82A A111U A145G C150U C169G U176A | 0.0134
72 | C82A A111U A145G C150U C169G U176G | 0.00676
73 | C82A A111U A145G C150U C169G U176C | 0.0194
74 | C82A A120C A145C C150A C169A | 0.00995
75 | C82A A120C A145C C150A C169G | 0.0078
76 | C82A A120C A145C C150A C169U | 0.00877
77 | C82A A111U C150U C169A U176A | 0.0158
78 | C82A A111U C150U C169A U176C | 0.015
79 | C82A A111U C150U C169A U176G | 0.00786
80 | C82A A111U A145U C150A C169G U176C | 0.0188
81 | C82A A111U A145U C150A C169G U176G | 0.00712
82 | C82A A111U A145U C150A C169G U176A | 0.0157
83 | C82A A120C A145U C150A C169G | 0.00904
